This passage reports pKd results from PMC9482650, “Quantitative fragmentomics allow affinity mapping of interactomes” (Nature Communications, 2022).

Targets include LIMK2, P53671; SCRIB_3, Q14160; NHERF4_2, Q86UT5; MAGI1_2, Q96QZ7; GORASP1, Q9BQQ3; GRIP2_7, Q9C0E4; TJP1_2, Q07157; PARD3_3, Q8TEW0; SCRIB_1, Q14160; TJP2_1, Q9UDY2; GRIP2_3, Q9C0E4.
What all share (experiment): holdup assay
Holding throughout (design): key: below the threshold = too weak to quantify, mostly under pKd 3.1 to 4
Conditions in all cases: plain residues with an end cap or a label only (N-terminal biotin on a linker: ado-ado)

Another assay has as its target T1, CARD11, Q9BXL7.
T1 sequence (Q9BXL7 662-765, limits assumed, looked up): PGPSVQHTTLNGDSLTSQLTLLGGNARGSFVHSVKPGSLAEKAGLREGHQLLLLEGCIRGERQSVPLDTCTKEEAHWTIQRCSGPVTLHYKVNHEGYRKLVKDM

The target in the next assay is T2, PDZD7_3, Q9H5P4.
T2 sequence (Q9H5P4 857-944, limits assumed, looked up): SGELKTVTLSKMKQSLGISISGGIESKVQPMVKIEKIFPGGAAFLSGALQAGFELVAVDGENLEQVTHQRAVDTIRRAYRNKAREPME

In the next assay the target is T3, PARD3B_1, Q8TEW8.
T3 sequence (Q8TEW8 196-299, limits assumed, looked up): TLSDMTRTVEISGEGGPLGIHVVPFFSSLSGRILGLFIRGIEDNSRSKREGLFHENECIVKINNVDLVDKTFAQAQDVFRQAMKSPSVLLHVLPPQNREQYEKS

For the next assay, the target named is T4, TJP3_3, O95049.
T4 sequence (O95049 375-456, limits assumed, looked up): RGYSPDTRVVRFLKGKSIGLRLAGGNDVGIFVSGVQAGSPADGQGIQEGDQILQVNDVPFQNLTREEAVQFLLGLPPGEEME

For a further assay, the target named is T5, HTRA3, P83110.
T5 sequence (P83110 354-453, limits assumed, looked up): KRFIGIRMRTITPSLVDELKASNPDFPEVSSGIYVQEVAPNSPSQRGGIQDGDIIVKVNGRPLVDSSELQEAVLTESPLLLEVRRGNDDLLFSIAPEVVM

In the next assay the target is T6, SIPA1L2, Q9P2F8.
T6 sequence (Q9P2F8 945-1036, limits assumed, looked up): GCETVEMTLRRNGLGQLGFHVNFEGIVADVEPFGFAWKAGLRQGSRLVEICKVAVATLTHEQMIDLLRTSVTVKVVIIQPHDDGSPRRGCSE

The target in a further assay is T7, DFNB31_1, Q9P202.
T7 sequence (Q9P202 135-233, limits assumed, looked up): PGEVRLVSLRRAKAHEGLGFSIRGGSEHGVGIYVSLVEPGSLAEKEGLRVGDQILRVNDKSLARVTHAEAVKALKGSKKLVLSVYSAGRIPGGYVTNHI

The next assay addresses T8, SNTA1, Q13424.
T8 sequence (Q13424 82-180, limits assumed, looked up): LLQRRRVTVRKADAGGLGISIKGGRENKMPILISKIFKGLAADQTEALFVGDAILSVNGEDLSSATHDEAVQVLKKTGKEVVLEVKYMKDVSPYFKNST

In the next assay the target is T9, ARHGAP21, Q5T5U3.
T9 sequence (Q5T5U3 45-169, limits assumed, looked up): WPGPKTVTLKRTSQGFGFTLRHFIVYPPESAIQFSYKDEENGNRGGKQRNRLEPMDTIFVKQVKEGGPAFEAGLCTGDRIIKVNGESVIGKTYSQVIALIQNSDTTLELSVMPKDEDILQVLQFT

Another assay has as its target T10, SNTG1, Q9NSN8.
T10 sequence (Q9NSN8 52-150, limits assumed, looked up): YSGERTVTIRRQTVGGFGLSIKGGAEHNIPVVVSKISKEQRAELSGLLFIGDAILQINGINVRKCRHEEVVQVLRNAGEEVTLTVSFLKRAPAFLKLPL

A further assay has as its target T11, DFNB31_3, Q9P202.
T11 sequence (Q9P202 811-907, limits assumed, looked up): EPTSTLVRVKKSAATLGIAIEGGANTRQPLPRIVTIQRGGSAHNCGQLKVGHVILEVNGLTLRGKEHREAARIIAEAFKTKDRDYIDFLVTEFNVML

The target of the next assay is T12, FRMPD1, Q5SYB0.
T12 sequence (Q5SYB0 52-145, limits assumed, looked up): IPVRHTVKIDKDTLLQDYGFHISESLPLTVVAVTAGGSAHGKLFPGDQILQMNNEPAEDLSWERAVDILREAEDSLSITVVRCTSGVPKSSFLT

A further assay addresses T13, APBA2_2, Q99767.
T13 sequence (Q99767 654-744, limits assumed, looked up): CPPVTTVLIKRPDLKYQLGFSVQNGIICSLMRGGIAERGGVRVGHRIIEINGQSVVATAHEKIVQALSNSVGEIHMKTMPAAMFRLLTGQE

Sequence of MAGI1_2, Q96QZ7 (Q96QZ7 456-580): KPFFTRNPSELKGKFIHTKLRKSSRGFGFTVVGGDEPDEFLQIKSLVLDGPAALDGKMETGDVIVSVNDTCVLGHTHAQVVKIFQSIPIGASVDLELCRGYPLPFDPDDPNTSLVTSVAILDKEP
Sequence of SCRIB_3, Q14160 (Q14160 999-1103): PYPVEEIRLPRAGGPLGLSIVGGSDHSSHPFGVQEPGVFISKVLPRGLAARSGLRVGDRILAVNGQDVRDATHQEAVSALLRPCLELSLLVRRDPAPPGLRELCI
Sequence of GRIP2_7, Q9C0E4 (Q9C0E4 934-1023): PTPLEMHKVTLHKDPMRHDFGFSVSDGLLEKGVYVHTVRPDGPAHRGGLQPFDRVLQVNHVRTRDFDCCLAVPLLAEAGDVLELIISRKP
Sequence of TJP2_1, Q9UDY2 (Q9UDY2 24-128): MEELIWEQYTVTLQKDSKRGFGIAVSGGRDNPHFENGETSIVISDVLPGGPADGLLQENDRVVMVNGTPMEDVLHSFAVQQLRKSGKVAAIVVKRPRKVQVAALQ
Sequence of GRIP2_3, Q9C0E4 (Q9C0E4 238-339): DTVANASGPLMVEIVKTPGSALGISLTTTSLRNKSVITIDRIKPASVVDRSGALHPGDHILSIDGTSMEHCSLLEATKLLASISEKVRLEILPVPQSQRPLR
Sequence of SCRIB_1, Q14160 (Q14160 718-814): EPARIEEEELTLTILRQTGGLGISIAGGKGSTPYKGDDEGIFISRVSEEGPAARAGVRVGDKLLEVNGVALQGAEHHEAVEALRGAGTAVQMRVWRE
Sequence of LIMK2, P53671 (P53671 143-248): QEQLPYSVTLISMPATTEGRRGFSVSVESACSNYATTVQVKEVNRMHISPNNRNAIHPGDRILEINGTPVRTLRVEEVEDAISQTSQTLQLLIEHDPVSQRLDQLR
Sequence of TJP1_2, Q07157 (Q07157 181-274): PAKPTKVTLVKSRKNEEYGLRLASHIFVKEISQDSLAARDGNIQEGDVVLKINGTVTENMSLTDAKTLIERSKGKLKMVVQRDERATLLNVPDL
Sequence of PARD3_3, Q8TEW0 (Q8TEW0 582-685): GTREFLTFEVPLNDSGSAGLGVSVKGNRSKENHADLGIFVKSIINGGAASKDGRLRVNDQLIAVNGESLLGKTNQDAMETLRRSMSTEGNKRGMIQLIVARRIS
Sequence of GORASP1, Q9BQQ3 (Q9BQQ3 1-208): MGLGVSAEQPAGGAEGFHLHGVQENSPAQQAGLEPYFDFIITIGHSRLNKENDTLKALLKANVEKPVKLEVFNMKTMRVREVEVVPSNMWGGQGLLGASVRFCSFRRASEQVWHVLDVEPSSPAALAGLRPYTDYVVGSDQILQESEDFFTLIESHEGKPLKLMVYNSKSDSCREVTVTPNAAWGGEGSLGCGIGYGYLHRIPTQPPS
Sequence of NHERF4_2, Q86UT5 (Q86UT5 220-308): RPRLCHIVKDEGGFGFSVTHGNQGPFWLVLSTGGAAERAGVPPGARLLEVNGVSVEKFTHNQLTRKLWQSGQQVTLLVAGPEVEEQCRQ

What is called pKd is the negative decadic logarithm of the Kd, by convention in mol/L. As to FHSIKQSTAV [CRHR1, P34998], the pKd entry was “below the threshold” with LIMK2, P53671; 4.43 in the assay with SCRIB_3, Q14160; “below the threshold” with NHERF4_2, Q86UT5; “below the threshold” with CARD11, Q9BXL7; 4.36 in the assay with PDZD7_3, Q9H5P4; “below the threshold” with PARD3B_1, Q8TEW8. For the same molecule, the pKd with MAGI1_2, Q96QZ7 was 5.05; with TJP3_3, O95049, “below the threshold”; with HTRA3, P83110, “below the threshold”; in the assay with SIPA1L2, Q9P2F8, “below the threshold”; in the assay with DFNB31_1, Q9P202, 4.39; with SNTA1, Q13424, 3.71. Moreover, the pKd result was “below the threshold” with GORASP1, Q9BQQ3; “below the threshold” in the assay with GRIP2_7, Q9C0E4; “below the threshold” with ARHGAP21, Q5T5U3; “below the threshold” with TJP1_2, Q07157; 3.64 in the assay with SNTG1, Q9NSN8; “below the threshold” with PARD3_3, Q8TEW0. The pKd with SCRIB_1, Q14160 was 4.01; with DFNB31_3, Q9P202, “below the threshold”; with FRMPD1, Q5SYB0, “below the threshold”; with TJP2_1, Q9UDY2, 3.6; in the assay with GRIP2_3, Q9C0E4, “below the threshold”; in the assay with APBA2_2, Q99767, “below the threshold”.

In the case of ATKDKKITTV [EXOC4, Q96A65], the pKd entry with LIMK2, P53671 was “below the threshold”; with SCRIB_3, Q14160, 3.84; with NHERF4_2, Q86UT5, “below the threshold”; in the assay with CARD11, Q9BXL7, “below the threshold”; in the assay with PDZD7_3, Q9H5P4, 5.64; with PARD3B_1, Q8TEW8 it was “below the threshold”. The pKd with MAGI1_2, Q96QZ7 was 4.91; in the assay with TJP3_3, O95049, “below the threshold”; in the assay with HTRA3, P83110, “below the threshold”; in the assay with SIPA1L2, Q9P2F8, 3.52; with DFNB31_1, Q9P202, 3.58; with SNTA1, Q13424, 4.26. Besides, the pKd is 3.76 with GORASP1, Q9BQQ3; 3.52 with GRIP2_7, Q9C0E4; 4.09 with ARHGAP21, Q5T5U3; 3.73 with TJP1_2, Q07157; 3.72 in the assay with SNTG1, Q9NSN8; “below the threshold” with PARD3_3, Q8TEW0. Also, the pKd was 3.85 in the assay with SCRIB_1, Q14160; “below the threshold” with DFNB31_3, Q9P202; “below the threshold” with FRMPD1, Q5SYB0; 3.87 with TJP2_1, Q9UDY2; 3.51 in the assay with GRIP2_3, Q9C0E4; “below the threshold” with APBA2_2, Q99767.

Take VKQYADVEGF [HNRNPK, P61978;P61978-2]: the negative-log Kd (pKd) result with LIMK2, P53671 is given as “below the threshold”; with SCRIB_3, Q14160, “below the threshold”; with NHERF4_2, Q86UT5, “below the threshold”; with CARD11, Q9BXL7, “below the threshold”; in the assay with PDZD7_3, Q9H5P4 it was “below the threshold”; in the assay with PARD3B_1, Q8TEW8, “below the threshold”. Also, the pKd result in the assay with MAGI1_2, Q96QZ7 is given as “below the threshold”; with TJP3_3, O95049, “below the threshold”; with HTRA3, P83110 it was “below the threshold”; in the assay with SIPA1L2, Q9P2F8 it was “below the threshold”; with DFNB31_1, Q9P202, “below the threshold”; with SNTA1, Q13424, “below the threshold”. Moreover, the pKd entry in the assay with GORASP1, Q9BQQ3 was “below the threshold”; with GRIP2_7, Q9C0E4, “below the threshold”; with ARHGAP21, Q5T5U3, “below the threshold”; with TJP1_2, Q07157 it was “below the threshold”; with SNTG1, Q9NSN8 it was “below the threshold”; with PARD3_3, Q8TEW0, “below the threshold”. Further, the negative logarithm of the Kd (pKd) result was “below the threshold” with SCRIB_1, Q14160; 3.98 with DFNB31_3, Q9P202; “below the threshold” in the assay with FRMPD1, Q5SYB0; “below the threshold” with TJP2_1, Q9UDY2; “below the threshold” in the assay with GRIP2_3, Q9C0E4; “below the threshold” in the assay with APBA2_2, Q99767.
